IntAct's records for PubMed 16983070

B1: Rho guanine nucleotide exchange factor 7 (Homo sapiens), Q14155 (parent)
chain: MNSAEQTVTWLITLGVLESPKKTISDPEGFLQASLKDGVVLCRLLERLLPGTIEKVYPEPRSESECLSNIREFLRGCGASLRLELLFPPSQPPQHLVTTILLSASTFDANDLYQGQNFNKVLSSLVTLNKVTADIGLGSDSVCARPSSHRIKSFDSLGSQSLHTRTSKLFQGQYRSLDMTDNSNNQLVVRAKFNFQQTNEDELSFSKGDVIHVTRVEEGGWWEGTLNGRTGWFPSNYVREVKASEKPVSPKSGTLKSPPKGFDTTAINKSYYNVVLQNILETENEYSKELQTVLSTYLRPLQTSEKLSSANISYLMGNLEEICSFQQMLVQSLEECTKLPEAQQRVGGCFLNLMPQMKTLYLTYCANHPSAVNVLTEHSEELGEFMETKGASSPGILVLTTGLSKPFMRLDKYPTLLKELERHMEDYHTDRQDIQKSMAAFKNLSAQCQEVRKRKELELQILTEAIRNWEGDDIKTLGNVTYMSQVLIQCAGSEEKNERYLLLFPNVLLMLSASPRMSGFIYQGKLPTTGMTITKLEDSENHRNAFEISGSMIERILVSCNNQQDLQEWVEHLQKQTKVTSVGNPTIKPHSVPSHTLPSHPVTPSSKHADSKPAPLTPAYHTLPHPSHHGTPHTTINWGPLEPPKTPKPWSLSCLRPAPPLRPSAALCYKEDLSKSPKTMKKLLPKRKPERKPSDEEFASRKSTAALEEDAQILKVIEAYCTSAKTRQTLNSTWQGTDLMHNHVLADDDQPSLDSLGRRSSLSRLEPSDLSEDSDYDSIWTAHSYRMGSTSRKSCCSYISHQN
partner: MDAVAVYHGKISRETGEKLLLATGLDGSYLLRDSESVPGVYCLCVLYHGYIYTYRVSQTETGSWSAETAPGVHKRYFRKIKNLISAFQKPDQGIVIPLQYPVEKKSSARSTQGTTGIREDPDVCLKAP
B2: SH2 domain-containing protein 1A (Homo sapiens), O60880-1 (parent)
chain: B1 partner

Variants of: B1
Settings: with SH2D1A

effect of a mutation on the interaction | Variant
disrupting interaction strength | W221P;W222G

Variants of: B2
Settings: with arhg7_human ARHGEF7, Q14155

effect of a mutation on the interaction | Variant
disrupting interaction strength | MDAVAVYHGKISRETGEKLLLATGLDGSYLLRDSESVPGVYCLCVLYHGYIYTYRVSQTETGSWSAETAPGVHKRYFAKIKNLISAFQKPDQGIVIPLQYPVEKKSSARSTQGTTGIREDPDVCLKAP [R78A]
